Reference: article PMC9482650, “Quantitative fragmentomics allow affinity mapping of interactomes” (Nature Communications, 2022)

T1: SHANK1, Q9Y566
T1 sequence (Q9Y566 658-767, limits assumed, looked up): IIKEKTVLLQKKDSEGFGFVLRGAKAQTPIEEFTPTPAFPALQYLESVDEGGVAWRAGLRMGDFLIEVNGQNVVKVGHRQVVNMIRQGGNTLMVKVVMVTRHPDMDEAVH

T2: NHERF3_4, Q5T2W1
T2 sequence (Q5T2W1 373-468, limits assumed, looked up): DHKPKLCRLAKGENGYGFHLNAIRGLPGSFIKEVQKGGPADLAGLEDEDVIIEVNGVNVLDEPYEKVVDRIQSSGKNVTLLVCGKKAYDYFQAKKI

T3: PDZD7_3, Q9H5P4
T3 sequence (Q9H5P4 857-944, limits assumed, looked up): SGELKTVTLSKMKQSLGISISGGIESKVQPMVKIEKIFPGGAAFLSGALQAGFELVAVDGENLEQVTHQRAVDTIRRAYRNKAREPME

T4: LNX2_2, Q8N448
T4 sequence (Q8N448 334-432, limits assumed, looked up): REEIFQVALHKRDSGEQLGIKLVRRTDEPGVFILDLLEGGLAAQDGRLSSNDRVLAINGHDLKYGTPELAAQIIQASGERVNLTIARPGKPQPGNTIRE

T5: MPDZ_12, O75970
T5 sequence (O75970 1857-1958, limits assumed, looked up): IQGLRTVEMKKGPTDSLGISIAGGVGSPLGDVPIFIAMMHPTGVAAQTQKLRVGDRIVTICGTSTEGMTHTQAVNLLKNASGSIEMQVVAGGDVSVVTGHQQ

T6: PTPN13_1, Q12923
T6 sequence (Q12923 1088-1188, limits assumed, looked up): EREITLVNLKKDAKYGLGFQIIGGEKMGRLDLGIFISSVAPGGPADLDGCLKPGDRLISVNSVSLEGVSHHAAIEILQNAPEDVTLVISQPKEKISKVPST

T7: GRIP1_5, Q9Y3R0
T7 sequence (Q9Y3R0 568-668, limits assumed, looked up): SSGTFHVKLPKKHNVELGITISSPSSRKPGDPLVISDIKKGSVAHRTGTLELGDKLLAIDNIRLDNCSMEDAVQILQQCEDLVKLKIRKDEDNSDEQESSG

T8: APBA2_2, Q99767
T8 sequence (Q99767 654-744, limits assumed, looked up): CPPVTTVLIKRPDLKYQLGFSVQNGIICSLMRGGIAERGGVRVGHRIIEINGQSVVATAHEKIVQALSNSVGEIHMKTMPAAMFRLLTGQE

T9: APBA3_1, O96018
T9 sequence (O96018 389-490, limits assumed, looked up): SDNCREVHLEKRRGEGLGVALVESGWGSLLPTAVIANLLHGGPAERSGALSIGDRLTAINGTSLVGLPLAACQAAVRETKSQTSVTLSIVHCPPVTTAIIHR

T10: HTRA4, P83105
T10 sequence (P83105 378-476, limits assumed, looked up): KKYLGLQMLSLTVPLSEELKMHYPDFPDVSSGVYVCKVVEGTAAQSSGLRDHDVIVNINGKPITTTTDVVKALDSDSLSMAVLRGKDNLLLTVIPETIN

T11: RAPGEF6, Q8TEU7
T11 sequence (Q8TEU7 525-625, limits assumed, looked up): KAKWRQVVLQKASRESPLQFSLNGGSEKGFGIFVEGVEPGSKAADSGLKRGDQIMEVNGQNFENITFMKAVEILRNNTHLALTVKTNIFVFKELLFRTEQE


Columns and labels:
Test in all cases: holdup assay
Parameters in all cases: key: below the threshold = too weak to quantify, mostly under pKd 3.1 to 4
Settings in all cases: plain residues with an end cap or a label only (N-terminal biotin on a linker: ado-ado)
[1] = target: T1, SHANK1, Q9Y566
[2] = target: AHNAK1, Q09666
[3] = target: T2, NHERF3_4, Q5T2W1
[4] = target: MAGI2_6, Q86UL8
[5] = target: T3, PDZD7_3, Q9H5P4
[6] = target: MAGI2_5, Q86UL8
[7] = target: DLG4_2, P78352
[8] = target: T4, LNX2_2, Q8N448
[9] = target: T5, MPDZ_12, O75970
[10] = target: PDZRN4_1, Q6ZMN7
[11] = target: DLG2_2, Q15700
[12] = target: LNX1_2, Q8TBB1
[13] = target: LNX1_1, Q8TBB1
[14] = target: T6, PTPN13_1, Q12923
[15] = target: T7, GRIP1_5, Q9Y3R0
[16] = target: DLG4_3, P78352
[17] = target: T8, APBA2_2, Q99767
[18] = target: FRMPD4, Q14CM0
[19] = target: Inadl_3, Q8NI35
[20] = target: Inadl_1, Q8NI35
[21] = target: T9, APBA3_1, O96018
[22] = target: T10, HTRA4, P83105
[23] = target: PTPN3, P26045
[24] = target: T11, RAPGEF6, Q8TEU7
[25] = target: Inadl_9, Q8NI35
[26] = target: LIMK2, P53671
[27] = target: DLG1_1, Q12959

Sequence of Inadl_3, Q8NI35 (Q8NI35 359-469): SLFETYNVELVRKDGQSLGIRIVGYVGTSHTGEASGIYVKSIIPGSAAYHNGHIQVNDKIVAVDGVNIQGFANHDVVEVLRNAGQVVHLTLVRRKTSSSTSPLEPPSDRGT
Sequence of MAGI2_5, Q86UL8 (Q86UL8 915-1017): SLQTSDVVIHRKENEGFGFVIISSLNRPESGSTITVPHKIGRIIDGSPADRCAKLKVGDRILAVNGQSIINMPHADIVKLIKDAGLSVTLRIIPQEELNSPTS
Sequence of Inadl_1, Q8NI35 (Q8NI35 113-229): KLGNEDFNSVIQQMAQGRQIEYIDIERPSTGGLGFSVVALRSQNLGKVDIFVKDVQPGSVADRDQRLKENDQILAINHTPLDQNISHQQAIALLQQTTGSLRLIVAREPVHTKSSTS
Sequence of MAGI2_6, Q86UL8 (Q86UL8 1141-1229): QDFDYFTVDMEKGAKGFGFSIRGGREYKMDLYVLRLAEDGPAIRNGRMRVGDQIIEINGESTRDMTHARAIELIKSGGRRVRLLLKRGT
Sequence of PTPN3, P26045 (P26045 505-587): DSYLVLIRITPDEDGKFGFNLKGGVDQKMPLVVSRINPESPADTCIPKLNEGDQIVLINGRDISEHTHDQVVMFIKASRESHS
Sequence of DLG4_3, P78352 (P78352 306-403): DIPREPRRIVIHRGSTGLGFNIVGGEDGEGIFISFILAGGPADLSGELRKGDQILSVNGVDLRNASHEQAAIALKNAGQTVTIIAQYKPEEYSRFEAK
Sequence of LNX1_2, Q8TBB1 (Q8TBB1 371-470): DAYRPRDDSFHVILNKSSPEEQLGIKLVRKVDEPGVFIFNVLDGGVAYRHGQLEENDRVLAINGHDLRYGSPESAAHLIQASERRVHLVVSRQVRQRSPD
Sequence of PDZRN4_1, Q6ZMN7 (Q6ZMN7 213-318): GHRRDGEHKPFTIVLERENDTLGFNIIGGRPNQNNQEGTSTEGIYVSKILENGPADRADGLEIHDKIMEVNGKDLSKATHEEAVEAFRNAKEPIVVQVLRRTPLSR
Sequence of Inadl_9, Q8NI35 (Q8NI35 1530-1615): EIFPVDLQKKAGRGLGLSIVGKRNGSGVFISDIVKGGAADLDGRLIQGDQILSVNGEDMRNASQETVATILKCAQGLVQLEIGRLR
Sequence of DLG4_2, P78352 (P78352 155-259): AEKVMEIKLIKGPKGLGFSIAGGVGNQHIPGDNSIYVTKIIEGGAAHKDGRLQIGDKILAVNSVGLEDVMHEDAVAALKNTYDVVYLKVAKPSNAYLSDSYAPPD
Sequence of LIMK2, P53671 (P53671 143-248): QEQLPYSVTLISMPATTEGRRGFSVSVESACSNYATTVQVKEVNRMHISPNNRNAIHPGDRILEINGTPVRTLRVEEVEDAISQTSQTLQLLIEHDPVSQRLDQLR
Sequence of FRMPD4, Q14CM0 (Q14CM0 67-160): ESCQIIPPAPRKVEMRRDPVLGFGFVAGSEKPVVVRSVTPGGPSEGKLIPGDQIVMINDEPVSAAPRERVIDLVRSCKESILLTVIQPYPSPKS
Sequence of LNX1_1, Q8TBB1 (Q8TBB1 261-371): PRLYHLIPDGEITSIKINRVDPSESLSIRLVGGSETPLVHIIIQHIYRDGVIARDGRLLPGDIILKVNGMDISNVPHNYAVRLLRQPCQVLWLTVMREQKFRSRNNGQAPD
Sequence of AHNAK1, Q09666 (Q09666 4-100): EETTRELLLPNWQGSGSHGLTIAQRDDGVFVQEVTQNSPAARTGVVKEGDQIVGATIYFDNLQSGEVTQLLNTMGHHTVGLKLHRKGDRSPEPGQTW
Sequence of DLG2_2, Q15700 (Q15700 189-283): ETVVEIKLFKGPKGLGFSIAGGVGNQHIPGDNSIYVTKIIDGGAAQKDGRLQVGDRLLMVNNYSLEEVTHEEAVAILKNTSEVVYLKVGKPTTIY

Binder	pKd [1]	pKd [2]	pKd [3]	pKd [4]	pKd [5]	pKd [6]	pKd [7]	pKd [8]	pKd [9]	pKd [10]	pKd [11]	pKd [12]	pKd [13]	pKd [14]	pKd [15]	pKd [16]	pKd [17]	pKd [18]	pKd [19]	pKd [20]	further results
QSGLYESEEL [MYOT, Q9UBF9]	3.72	below the threshold	below the threshold	4.24	3.63	4.02	3.53	below the threshold	below the threshold	below the threshold	below the threshold	below the threshold	below the threshold	below the threshold	below the threshold	below the threshold	below the threshold	below the threshold	below the threshold	below the threshold	pKd [21]: below the threshold; pKd [22]: 3.69; pKd [23]: 4.21; pKd [24]: 3.57; pKd [25]: below the threshold; pKd [26]: below the threshold; pKd [27]: below the threshold
GEDRSPPTAL [MKNK1, Q9BUB5]	below the threshold	below the threshold	3.7	3.57	3.8	below the threshold	below the threshold	below the threshold	below the threshold	below the threshold	below the threshold	below the threshold	below the threshold	below the threshold	below the threshold	3.5	below the threshold	4.01	below the threshold	below the threshold	pKd [21]: below the threshold; pKd [22]: 3.8; pKd [23]: 4.06; pKd [24]: below the threshold; pKd [25]: below the threshold; pKd [26]: below the threshold; pKd [27]: below the threshold
LPAVCYDIDI [PTTG2, Q9NZH5]	below the threshold	below the threshold	below the threshold	below the threshold	below the threshold	below the threshold	below the threshold	3.83	3.48	below the threshold	below the threshold	below the threshold	below the threshold	below the threshold	below the threshold	below the threshold	below the threshold	below the threshold	4.63	below the threshold	pKd [21]: below the threshold; pKd [22]: 3.96; pKd [23]: 4.22; pKd [24]: below the threshold; pKd [25]: below the threshold; pKd [26]: below the threshold; pKd [27]: below the threshold
